Experiments:
[1] = biological target: T1, TNFRSF9 protein (also referred to as CD137 protein) (Homo sapiens (Human), UniProt Q07011 24-186); experiment: ELISA on coated TNFRSF9, CHO-S expression supernatant diluted 100-fold
T1 construct: also called recombinant TNFRSF9 protein

[2] = biological target: T1, TNFRSF9 protein (also referred to as …); experiment: indirect ELISA, purified antibody on coated recombinant TNFRSF9 (0.5 ug/ml)

OD450 (100-fold dilution) [1]: 3.33 OD450
EC50 [2]: 3.8 ng/mL
B1: rabbit monoclonal antibody 4C2-WTH before humanization (antibody, human IgG1, V domains shown)
VH: QSVEESGGRLVTPGTPLTLTCTVSGFSLGTFPIGWVRQAPGSGLEWIGIFNTDGSAAYASWARGRFTVFKNSTTVDLKMTSPTTEDTATYFCARINADYSGWYFGIWGPGTLVTVSS
VL: EMTQTPASVEVAVGGTVTIKCQASQSIYSYLAWYQQKPGQPPKPLIYEASKTPSGVPSRFKGSGSGTEYTLTISGVQCEDAATYYCQKGYSVSNVAFGGGTEVVVKR
notes: As tested it is a chimera: the original rabbit variable regions with the human IgG1 constant region, expressed from pcDNA3.4 in CHO-S cells; also called wild-type antibody; anti-CD137 rabbit antibody
